Numbering of substitutions follows the chain as printed.

T1: human CEA (human, UniProt P06731 35-685)
T1 sequence: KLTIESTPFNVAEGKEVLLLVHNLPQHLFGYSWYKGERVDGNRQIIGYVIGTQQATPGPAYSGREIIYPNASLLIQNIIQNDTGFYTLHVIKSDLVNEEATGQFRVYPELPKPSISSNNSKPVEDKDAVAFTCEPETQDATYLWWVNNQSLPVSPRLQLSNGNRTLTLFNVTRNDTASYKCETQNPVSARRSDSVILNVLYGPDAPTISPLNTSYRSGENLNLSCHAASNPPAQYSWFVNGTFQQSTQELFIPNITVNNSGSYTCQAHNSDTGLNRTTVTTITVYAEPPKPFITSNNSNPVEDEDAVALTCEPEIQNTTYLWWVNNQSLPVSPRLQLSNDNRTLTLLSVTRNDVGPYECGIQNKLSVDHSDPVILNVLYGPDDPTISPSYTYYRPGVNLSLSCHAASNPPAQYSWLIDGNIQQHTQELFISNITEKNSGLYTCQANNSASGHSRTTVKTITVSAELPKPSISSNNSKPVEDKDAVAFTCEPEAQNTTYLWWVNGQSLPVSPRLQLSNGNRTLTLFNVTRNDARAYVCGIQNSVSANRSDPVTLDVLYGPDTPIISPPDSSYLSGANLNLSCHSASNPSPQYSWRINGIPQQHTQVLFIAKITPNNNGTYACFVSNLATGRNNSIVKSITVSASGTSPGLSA

T2: Human BCMA (human, UniProt Q02223 1-54)
T2 sequence: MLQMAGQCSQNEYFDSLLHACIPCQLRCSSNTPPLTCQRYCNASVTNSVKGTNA

B1: CEA-M3-G2 (bispecific antibody)
chain 1: QVQLVQSGSELKKPGASVKVSCKASGYTFTVFGMNWVRQAPGQGLEWMGWINTKTGEATYVEEFKGRFVFSLDTSVSTAYLQISSLKADDTAVYYCARWDFYDYVEAMDYWGQGTTVTVSSASTKGPSVFPLAPSSKSTSGGTAALGCLVKDYFPEPVTVSWNSGALTSGVHTFPAVLQSSGLYSLSSVVTVPSSSLGTQTYICNVNHKPSNTKVDKKVEPKSCGGGGSGGGGSQVQLVESGGGVVQPGRSLRLSCAASGFTFSTYAMNWVRQAPGKGLEWVARIRSKYNNYATYYADSVKDRFTISRDDSKNTLYLQMNSLRAEDTAVYYCARHGNFGNSYVSWFAYWGQGTLVTVSSASVAAPSVFIFPPSDEQLKSGTASVVCLLNNFYPREAKVQWKVDNALQSGNSQESVTEQDSKDSTYSLSSTLTLSKADYEKHKVYACEVTHQGLSSPVTKSFNRGECDKTHTCPPCPAPPVAGPSVFLFPPKPKDTLMISRTPEVTCVVVDVSHEDPEVQFNWYVDGVEVHNAKTKPREEQFNSTFRVVSVLTVVHQDWLNGKEYKCKVSNKGLPAPIEKTISKTKGQPREPQVYTLPPCRDELTKNQVSLWCLVKGFYPSDIAVEWESNGQPENNYKTTPPVLDSDGSFFLYSKLTVDKSRWQQGNVFSCSVMHEALHNHYTQKSLSLSPGK
chain 2: QTVVTQEPSLTVSPGGTVTLTCRSSTGAVTTSNYANWVQQKPGQAPRGLIGGTNKRAPGVPARFSGSLLGGKAALTLSGVQPEDEAEYYCALWYSNLWVFGGGTKVEIKSSASTKGPSVFPLAPSSKSTSGGTAALGCLVKDYFPEPVTVSWNSGALTSGVHTFPAVLQSSGLYSLSSVVTVPSSSLGTQTYICNVNHKPSNTKVDKKVEPKSC
heavy: QVQLVQSGSELKKPGASVKVSCKASGYTFTVFGMNWVRQAPGQGLEWMGWINTKTGEATYVEEFKGRFVFSLDTSVSTAYLQISSLKADDTAVYYCARWDFYDYVEAMDYWGQGTTVTVSSASTKGPSVFPLAPSSKSTSGGTAALGCLVKDYFPEPVTVSWNSGALTSGVHTFPAVLQSSGLYSLSSVVTVPSSSLGTQTYICNVNHKPSNTKVDKKVEPKSCDKTHTCPPCPAPPVAGPSVFLFPPKPKDTLMISRTPEVTCVVVDVSHEDPEVQFNWYVDGVEVHNAKTKPREEQFNSTFRVVSVLTVVHQDWLNGKEYKCKVSNKGLPAPIEKTISKTKGQPREPQVCTLPPSRDELTKNQVSLSCAVKGFYPSDIAVEWESNGQPENNYKTTPPVLDSDGSFFLVSKLTVDKSRWQQGNVFSCSVMHEALHNRFTQKSLSLSPGK
light: DIQMTQSPSSLSASVGDRVTITCKASQNVGTNVAWYQQKPGKAPKLLIYSASYRYSGVPSRFSGSGSGTDFTFTISSLQPEDIATYYCHQYYTYPLFTFGQGTKVEIKRTVAAPSVFIFPPSDEQLKSGTASVVCLLNNFYPREAKVQWKVDNALQSGNSQESVTEQDSKDSTYSLSSTLTLSKADYEKHKVYACEVTHQGLSSPVTKSFNRGEC
notes: structure 3; CEA x CD3; CH2 G2CH2
B2: CEA-M3-PG2 (bispecific antibody)
chain 1: B1 chain 1 with C475P
chain 2: B1 chain 2
heavy: B1 heavy with C233P
light: B1 light
notes: structure 3; CEA x CD3; CH2 PG2CH2
B3: CEA-M3-DG2 (bispecific antibody)
chain 1: B1 chain 1 with D510A
chain 2: B1 chain 2
heavy: B1 heavy with D268A
light: B1 light
notes: structure 3; CEA x CD3; CH2 DG2CH2
B4: CEA-M3-SG2 (bispecific antibody)
chain 1: B1 chain 1 with C475S
chain 2: B1 chain 2
heavy: B1 heavy with C233S
light: B1 light
notes: structure 3 (fusion heavy chain, cross light chain, heavy, light; the light chain pairs with the heavy and with the fusion heavy chain); CEA x CD3; CH2 SG2CH2
B5: CEA-M3-GG2 (bispecific antibody)
chain 1: B1 chain 1 with C475G
chain 2: B1 chain 2
heavy: B1 heavy with C233G
light: B1 light
notes: structure 3; CEA x CD3; CH2 GG2CH2
B6: CEA-M3-G2D (bispecific antibody)
chain 1: B1 chain 1 with D515A
chain 2: B1 chain 2
heavy: B1 heavy with D273A
light: B1 light
notes: structure 3; CEA x CD3; CH2 G2DCH2
B7: CEA-M3-DG2D (bispecific antibody)
chain 1: B1 chain 1 with D510A, D515A
chain 2: B1 chain 2
heavy: B1 heavy with D268A, D273A
light: B1 light
notes: structure 3; CEA x CD3; CH2 DG2DCH2
B8: CEA-M3-AG2 (bispecific antibody)
chain 1: B1 chain 1 with C475A
chain 2: B1 chain 2
heavy: B1 heavy with C233A
light: B1 light
notes: structure 3; CEA x CD3; CH2 AG2CH2
B9: M2IC-WT (bispecific antibody, human IgG1, kappa)
chain: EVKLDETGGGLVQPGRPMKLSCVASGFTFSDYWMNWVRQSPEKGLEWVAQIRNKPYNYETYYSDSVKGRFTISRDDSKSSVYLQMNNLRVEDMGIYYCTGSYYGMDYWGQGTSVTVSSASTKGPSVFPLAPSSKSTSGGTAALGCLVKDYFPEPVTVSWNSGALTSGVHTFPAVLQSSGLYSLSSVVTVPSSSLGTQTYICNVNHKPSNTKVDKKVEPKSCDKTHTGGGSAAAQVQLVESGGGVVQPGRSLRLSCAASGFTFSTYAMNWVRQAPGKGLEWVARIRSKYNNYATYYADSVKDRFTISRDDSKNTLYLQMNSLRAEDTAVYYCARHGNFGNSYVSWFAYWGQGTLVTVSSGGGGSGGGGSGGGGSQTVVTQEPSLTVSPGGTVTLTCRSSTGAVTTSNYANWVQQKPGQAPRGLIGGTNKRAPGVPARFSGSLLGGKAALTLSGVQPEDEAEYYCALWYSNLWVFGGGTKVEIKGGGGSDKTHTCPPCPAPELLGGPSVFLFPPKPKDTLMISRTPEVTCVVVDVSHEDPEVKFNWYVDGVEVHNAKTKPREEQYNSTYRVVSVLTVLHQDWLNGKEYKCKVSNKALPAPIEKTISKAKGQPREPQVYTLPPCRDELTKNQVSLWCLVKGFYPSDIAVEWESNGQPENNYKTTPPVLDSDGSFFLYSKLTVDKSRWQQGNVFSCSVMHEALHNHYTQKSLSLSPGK
heavy: EVKLDETGGGLVQPGRPMKLSCVASGFTFSDYWMNWVRQSPEKGLEWVAQIRNKPYNYETYYSDSVKGRFTISRDDSKSSVYLQMNNLRVEDMGIYYCTGSYYGMDYWGQGTSVTVSSASTKGPSVFPLAPSSKSTSGGTAALGCLVKDYFPEPVTVSWNSGALTSGVHTFPAVLQSSGLYSLSSVVTVPSSSLGTQTYICNVNHKPSNTKVDKKVEPKSCDKTHTCPPCPAPELLGGPSVFLFPPKPKDTLMISRTPEVTCVVVDVSHEDPEVKFNWYVDGVEVHNAKTKPREEQYNSTYRVVSVLTVLHQDWLNGKEYKCKVSNKALPAPIEKTISKAKGQPREPQVCTLPPSRDELTKNQVSLSCAVKGFYPSDIAVEWESNGQPENNYKTTPPVLDSDGSFFLVSKLTVDKSRWQQGNVFSCSVMHEALHNRFTQKSLSLSPGK
light: DVVMTQTPLSLPVSLGDQASISCRSSQSLVHSNGNTYLRWYLQKPGQSPKVLIYKVSNRFSGVPDRFSGSGSGTDFTLKISRVEAEDLGVYFCSQSTHVPWTFGGGTKLEIKRTVAAPSVFIFPPSDEQLKSGTASVVCLLNNFYPREAKVQWKVDNALQSGNSQESVTEQDSKDSTYSLSSTLTLSKADYEKHKVYACEVTHQGLSSPVTKSFNRGEC
notes: structure 2 isotype control; CH2 WT
B10: M2IC-AAG (bispecific antibody, human IgG1, kappa, L234A L235A)
chain: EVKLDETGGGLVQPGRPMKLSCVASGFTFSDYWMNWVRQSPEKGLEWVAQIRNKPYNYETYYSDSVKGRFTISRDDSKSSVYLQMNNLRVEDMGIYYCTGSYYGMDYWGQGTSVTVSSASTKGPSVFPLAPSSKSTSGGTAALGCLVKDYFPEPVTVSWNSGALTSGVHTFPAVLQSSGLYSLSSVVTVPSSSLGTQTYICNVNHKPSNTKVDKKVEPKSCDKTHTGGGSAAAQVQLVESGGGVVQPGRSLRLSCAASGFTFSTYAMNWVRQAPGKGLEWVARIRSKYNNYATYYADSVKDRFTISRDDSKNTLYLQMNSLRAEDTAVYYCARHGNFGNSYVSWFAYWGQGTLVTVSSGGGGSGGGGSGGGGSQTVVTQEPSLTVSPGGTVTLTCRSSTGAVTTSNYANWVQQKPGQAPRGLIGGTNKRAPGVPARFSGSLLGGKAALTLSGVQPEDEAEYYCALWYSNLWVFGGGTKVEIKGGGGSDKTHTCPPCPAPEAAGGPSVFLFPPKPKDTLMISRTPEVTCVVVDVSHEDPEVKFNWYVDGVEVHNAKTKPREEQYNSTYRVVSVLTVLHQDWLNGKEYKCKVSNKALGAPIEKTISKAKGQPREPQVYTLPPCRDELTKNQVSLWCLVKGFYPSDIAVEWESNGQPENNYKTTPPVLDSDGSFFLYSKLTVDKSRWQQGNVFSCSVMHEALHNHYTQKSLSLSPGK
heavy: B9 heavy with L235A, L236A, P330G
light: B9 light
notes: structure 2 isotype control; CH2 AAG

The first assay deals with T3, Human CD3ε (human, UniProt P07766 23-126).
T3 construct: CD3 on T cells isolated from human whole blood
Nature of the assay: flow cytometry, human T cells. The text has this: (§1) 1) Cell preparation: T cells isolated from CD3-positive human whole blood were used for a CD3 end affinity detection of multifunctional antibody molecule; positive tumor cells of corresponding antigen were used for detecting affinity of tumor antigen; for example, CD38-positive MM. 1S cells (purchased from the Cell Resource Center of Shanghai Institutes for Biological Sciences, Chinese Academy of Sciences) or RPMI 8226 cells (purchased from the Cell Resource Center of Shanghai Institutes for Biological Sciences, Chinese Academy of Sciences) were used for CD38 antigen detection, and PD-L1 positive H358 cells (purchased from the Cell Resource Center of Shanghai Institutes for Biological Sciences, Chinese Academy of Sciences) were used for PD-L1 antigen detection, and so on. The cells were resuspended with 1% FBS-PBS, adjusted to a density of 4×10⁶/ml, and 50 μl of cells were taken from each well, and then plated at 2×10⁵ per well. Cell plating was operated on ice
(§2) 2) Addition of the antibody: according to the experimental design, the antibody was diluted gradually, and dilution of antibody was operated on ice. For example, the initial concentration of antibody for dilution was 3000 nM, and the antibody was diluted by 3 times with 11 concentration gradients. The diluted antibody was added to a cell well at 50 μl per well, mixed well, and shaked and incubated at 4° C. 1100 rpm/min for 2 h; after washing, the cells were resuspend in 1% FBS-PBS, and a diluted secondary antibody PE anti-human IgG FC (Biolegend, 409304) was added with a final concentration of 8 ug/ml and a volume of 50 μl/well. At the same time, a well only added with cells and secondary antibody was set as a control, the components were mixed well, and incubated under shaking at 1100 rpm/min at 4° C. for 1 h;
(§3) 5) Data analysis: the data was analyzed by a flow analysis software FlowJo 7.6 thereby obtaining an average fluorescence intensity of the specific antibody concentration, plotted by a Graphpad Prism 5 with the antibody concentration (nM) as an abscissa and the average fluorescence intensity as an ordinate; the EC50 value was calculated by the method of One site—Specific binding, and the EC50 value indicated the cell affinity of the antibody to the corresponding target antigen.
(A flow cytometer gives signals particle by particle.)
Regarding B1, a half-maximal response (EC50) required 638 nM.
Same read-out and setting: for B2 the value was 654 nM.
The same measure, in the same setting: the figure for B3 is 609 nM.
Same read-out and setting: the figure for B4 is 631 nM.
The molecule B5 showed an EC50 of 695 nM.
The same measure, in the same setting: for B6 the value was 670 nM.
Regarding B7, the concentration giving a half-maximal response (EC50) turned out to be 611 nM.
Turning to B8, the EC50 amounted to 602 nM.
On the same count and under the same terms, the figure for B9 is 499 nM.
The molecule B10 had an EC50 of 515 nM.

The target in a further assay is T4, Monkey CD3 (monkey).
T4 construct: whole, on cells; also called CD3 of monkey CD3 positive T cells
Nature of the assay: flow cytometry, monkey T cells.
In turn, B9 returned an EC50 of 540 nM.
The molecule B10 came in with an EC50 of 528 nM.

The target of a further assay is T1, human CEA. The assay can be described thus: flow cytometry, human tumor cells (CEA+).
Description: as §1, §2, §3
The molecule B1 yielded an EC50 of 36.3 nM.
As for B2, the response was half-maximal at 41.9 nM (EC50).
Still for that read-out and setting: for B3 the value was 31.9 nM; for B4, 30.5 nM.
Consider B5, for which the response was half-maximal at 39.1 nM (EC50).
As to B6, the EC50 was 38.4 nM.
B7 gave an EC50 of 34.2 nM.
The same measure, in the same setting: the figure for B8 is 38.1 nM.

A further assay has as its target T2, Human BCMA. The assay can be described thus: flow cytometry, human tumor cells (table of the BCMA series).
Description: as §1, §2, §3
As for B9, the binding result was “no binding”.
In the case of B10, the binding result is recorded as “no binding”.

By EC50 is commonly meant the midpoint of the concentration-response curve.

Source of the values: US20220098307A1 (WUHAN YZY BIOPHARMA, published 2022).
